Measurements reported in the DeepSol protein solubility set.

Experiment: soluble on expression in E. coli; label from the status in PepcDB or PDB records

Soluble on expression in E. coli, not soluble:
MGSDKIHHHHHHMLRSMYSGISGLKNFQTKLDVVGNNIANVNTFGYKKGRVTFKDLVSQSVGSASGNGGGVGGANPKQVGLGASMATVDSVSNQGALQNTGRTLDVAISGEGFFQIQTADGIRYARSGNFYTDLDGNLVTGDGNYVIGSDNAGPLGQPTIPLGGGYKTINIPANAQNLSIGKDGLVTYVDPAGTLQQAGYISLANFPNPGGLEKSGSNMYSISQNSGQPTSATPSTNGLGQLTSGTLEMSNVDLSEEFTEMIIAQRGFQANTRIITTSDQILEELVNLKR, MGSDKIHHHHHHMLRVKNLRLKYPNGDRKIFDNLNLEIKNKEKVLLLGPSGSGKSTLLNVLSGIVPNLIELPMKYDELNIDHDSGVIFQDPDNQFCMPKVYEELAFVLENRNIPRSEMDQEIENALKSVDLNVTHKTYVNNLSGGMKQKLAIVETILQKSKTLFLDEPTAMLDVKATEDLWKKLINLWKDQTVLIVEHKVEHIWQHVDRVLLLNYDGEIVADDTPEQILDHYEALLTEYGVWHPRAWHSAPRPIPLPNQTKNLLFHFDDGQIIRGKKTLFSSKELKLYSGEWLTITGKNGAGKTSLLEAMLQLIKYEGDMFYRDQLLSKIKQAAKHMYLVYQNPELQFITNSVYDEVYIHYNHLDPKHANDETMDLLKLLHLDQVKDHHPFEISTGQKRRLSVATALSSKAEIILLDEPTFGLDSHNTFQLIKLFQERVNQGQTIIMVTHDPEIIKRYPTRRLRVEDGCLKEMEGEHIV, MGSDKIHHHHHHMLSKICMKILTVLDSYPPDLNGGAYFTHRLAKFLQAKGHEVLVICPSRSLKQGYTSYEGVNLYGVRSWPALGYKNFRVCWPFFIKKGILKAITDFNPDVVHLQGKFFLGGICYRACRKKGIPLMATNHFMPENFFHYTHLPKYFEKWFHRTTWNIVIDMLNHVKIVTTPTHTAANLLKEVHIQKEIHVVSCGVDLQKFQPKQNANLIRQRYKIPDKPILLYAGRLDKEKNLSIAIKAFYKARQSIDAHFVLTGRGAELQRLKKLVQTLNLTEHVTFTGYLSDAEYPLVYSLANCFVNPGTAELQSIVALEAIASGLPLLAAKAMALPELVKEGVNGYLFDPNDVETLSCYMVKILSDRTFSEQMGRESRKLSQEHDIKRTIEQYETLYQSMVS, MGSDKIHHHHHHMLSLRHSCPRRALKVPNPFVEEAGPQPPKVLKAPVEIQANLRLLQDSRDSLLITFADRNQRFQSFLVDIDRDRGMVALDELIPNTGERFLQNGEAFRVEAFHEGVRIAWECERPVQFGEHDGVPCYWAALPAEVLYHQRRNAYRASIKQSQPIAAEIAGEKLRAPLSGQLLDISATGAKLRFAGNVAERLHPGEIYEDFSAQLPQGAISSAIELRHVRFDEKLDATFAGVRFSEMSGLAQRQVDRFVYQLQREARRFEKDELF, MGSDKIHHHHHHMLSRFARQLALPVFNGVLHPTRATSSIAHTIKVAHKIDETREKALLGGGKKRVDAQHARGKLTARERIDLLLDRNTFREYDMFAEHTCNDFGMQKEKYPGDSVVTGRGEINGRTVFVFSQDFTVFGGSLSSIHAKKIVKIMREAMLVGAPVIGLNDSGGARIQEGVESLAGYADIFQENVMASGVVPQISMIMGPCAGGAVYSPALTDFTFMVRDTSYLFITGPDVVKAVTNEEVTQEELGGAKTHTVTSGVAHGAFDNDVDALMSLRELFNYLPLSNTDAAPIRAAEDPWDRAVPSLDTVVPLESTAAYNMKDVVHALVDEGDFFEIMPDYAKNLVIGFARMNGRTVGIVGNNPKFAAGCLDINSSVKGARFVRFCDAFNIPIITLVDVPGFLPGTAQEYGGIIRHGAKLLYAFAEATVPKITIITRKAFGGAYDVMSSKHLRGDINYAWPTAEVAVMGAKGAVSILFRNDKEHAVQHEEEYTELFSNPFPAAVRGFVDDIIIPSETRKKVCEDLNMLESKKLKNPWKKHGNIPL, MGSDKIHHHHHHMLSTAKERQLKIVNRLKVEQFMRIIDLVELVNYSEATVKRDLVELEKEGLVRRTRGGAMIIDNKKIDLPYLMKMNERSNETSKIRIADIAKSLIRDDMVIFLDSSSTSLHLIDVLSKFDGLQIITNGVMTASMLSEFTNARVSILGGSILTKRYTVNGAKAYNDALTYNADIAFVSCRGIDYDKGATETHEGEALIKQAFRRQSSSLVLLVTEEKVGHKFMHQSLACHDIDYLITDFKLDSDVEEQFKTHQITCLY, MGSDKIHHHHHHMLTHYRDYESFKQVAIPLLERRPDVHQLPLGILERGDVPILMAIAEEGDRTIVVLQTIEEQAILAGDVFTYEGIRKLSRILNCPGYVGEQAIIEPLLASHSPFQIKMDQGIYTLTTVIPPVTLDYEFRLIEERFAPQAVAFGWSFIQETGALPATERSRLKNEQTIRKHIEAETLFGLFDGEQLLAMASSSRPTASGVTISYVFTPPKWRKQGIASYLVACLSEHLLQQYPMVSLYTDWSNKTSNKIYQAVGFELAGRSMQITKRPKYQ, MGSDKIHHHHHHMLTVSDVSLRFSDRKLFDEVNINFTAGNTYGLIGANGAGKSTFLKILAGDIEPTTGHIALGPDERLSVLRQNHFDYEDERVIDVVIMGNETLYSIMKEKDAIYMKEDFSDEDGVRAAELEGEFAELGGWEAESEASQLLQNLNISEELHYQNMSELANGDKVKVLLAKALFGKPDVLLLDEPTNGLDIQSITWLEDFLIDFENTVIVVSHDRHFLNKVCTHMADLDFGKIKLFVGNYDFWKESSELAARLQADRNAKAEEKIKQLQEFVARFSANASKSKQATSRKKMLDKIELEEIVPSSRKYPFVNFKAEREMGNDLLTVENLSVTIDGEKILDNISFILRPGDKTALIGQNDIQTTALIRALMGDIEYEGTIKWGVTTSRSYLPKDNSRDFASGESILEWLRQFASKEEDDNTFLRGFLGRMLFSGDEVNKSVNVLSGGEKVRVMLSKLMLLKSNVLVLDDPTNHLDLESISSLNDGLKDFKESIIFASHDHEFIQTLANHIIVLSKNGVIDRIDETYDEFLENTEVQAKVAQLWK, MGSDKIHHHHHHMMAPNQFSSGDVIADRRADYARMLAESGDYPAAAELMEQALELAPRWTAGWFRFGEYHEKAGETAKAVAAYEKVAELDAEGLFAAELKLAVLGAAETPEQPPSRYVEGLFDDYADRFETSLVEKLDYSVPQKLAELIGKAATGDAFDTIVDIGCGTGLLGIEIRSLAKRLEGFDISQNMLAKADEKSLYDHLGQADLSLDAEASGLFTPVLTQHRADLVAAADVMMYLGSLETVMPLVSALLKPSGFFAFSVEDAGDEQGFVLRESLRYAHSKSYVIDLLERSGFSPMEIRKTTIRKDAGKPLSGILFLARAKA, MGSDKIHHHHHHMMATIKDIAKEVGCSISTVSRVLNNDPTLSVGDETRSRIFEVAEEIGYRKKTLKTLVKNIAFLYWLTDNEELEDVYFQTMRVEIEKKARENNIELTTYKLEGGIEKIPLDIDGFIAVGSFMNRELEYLRELTPHGVFIDSTPDPAHYDSVRPDLAQITRQAVEVLVEQGHEKIGFIGGTYHNLDTDAEEMDGRERAFRQTMEERDLLREDFIFCRRGFSVDNGHYLMNQAVEQLGEELPTAFYVAADPIAVGCLQVLNEQQIEIPKRVSLISVNDTSISKYVSPPLTTFHIDLEEICQNAIQLLLERVLKKRNIVKTVYIGAELITRKSTL, MGSDKIHHHHHHMMAYLVFLGPPGAGKGTYAKRLQEITGIPHISTGDIFRDIVKKENDELGKKIKEIMERGELVPDELVNEVVKRRLSEKDCERGFILDGYPRTVAQAEFLDGFLKTQNKELTAAVLFEVPEEVVVQRLTARRICPKCGRIYNLISLPPKEDELCDDCKVKLVQREDDKEETVRHRYKVYLEKTQPVIDYYDKKGILKRVDGTIGIDNVIAEVLKIIGWSDK, MGSDKIHHHHHHMMDLEGYVRRCLRKKIPENKIIEDGFKRILEIKEDVDEEFAKKFIKAILEEVKTTEKFREIDDENLKTLLKYPKSGVTMGRMGVGSRGEGDFFVHREIARIVKSTKVKAYVSAEEQDDAGIVRADAKYIVAAIDGTHSRLSDFPFLGGFHVTRAALRDIYVMGAEAVALISDVHLADDGDVGKIFDFTAGICAVSEAVNVPLIGGSTLRVGGDMVIGDRLVSAVGAIGVIKEGEPTARRNAEVGDVILMTEGSGGGTITTTALYYGWFDVIYETLNVDFIKACQNLIRSGLIKKIHAMTDVTNGGLRGDAYEISKTAKVSLIFDKEKVYKTINPKVLEMLEVLNIDPLGVSTDSLMIICPEEYADDIKKVTGAIEVGYVEEGEESYLVDGNKKIPLKPMFRESAYTPVKKVVGERKPGDFEEMKEKVRRACDEAIKKKDFVVELLKERKKKF
